In US20150183847A1:

Target: interleukin-1 receptor (human (CHO-derived cells) or murine (EL4 cells); not stated which gave the tables) (UniProt P14778)
Experiment: competition with 35S-IL-1Ra on IL-1 receptor cells, Kd=IC50/2

Substance: wild-type human IL-1Ra (from UniProt P18510 26-177)
- Kd: 0.15 to 0.4 nM
